The test deals with CdiA-CT_(PA0041), C-terminal (CT) toxin domain of CdiA_(PA0041) of P. aeruginosa PAO1 (P. aeruginosa PAO1).

“CdiI_(PA2462)-His6, immunity protein of the cdi_(PA2462) locus of P. aeruginosa PAO1 (natural protein)” yielded a decrease of CFU/ml of E. coli co-producing CdiA-CT (PA0041) (1% arabinose) with the non-cognate CdiI (PA2462)-His6 (1 mM IPTG), after 6 h of culture: no protection of 6 logs.

The values above are taken from PMC4725963.
